Measurements: KR20220012792A (dated 2022)
Where two headings read alike, the source gives them in different places.

How the values were obtained:
Assay in all cases: cell-based or functional assay
[1] = target: S 단백질 of SARS-CoV-2 hCoV-19/South Korea/KCDC9481/2020 (614G, G형) (SARS-CoV-2)
[2] = target: T1, S 단백질 of SARS-CoV-2 hCoV-19/Korea/KCDC10847/2020 (GH형) (SARS-CoV-2)
[3] = target: T2, S 단백질 of SARS-CoV-2 hCoV-19/South Korea/KUMC17/2020 (614G) (SARS-CoV-2)
[4] = target: S 단백질 of SARS-CoV-2 영국변이바이러스주 hCoV-19/South Korea/KDCA0838/2020 (SARS-CoV-2)
[5] = target: T1, S 단백질 of SARS-CoV-2 …; remark: listed apart in the source
[6] = target: T2, S 단백질 of SARS-CoV-2 hCoV-19/South …; remark: listed apart in the source
[7] = target: T2, S 단백질 of SARS-CoV-2 hCoV-19/South …; remark: listed apart in the source
[8] = target: T2, S 단백질 of SARS-CoV-2 hCoV-19/South …; remark: listed apart in the source

B1: No. 139 항체 (Full IgG) (antibody, V domains shown)
VH: QITLKESGPTLVKPTQTLTLTCSFSGFSLSTSGVGVGWIRQPPGKALEWLALIDWDDNKYHTTSLKTRLTISKDTSKNQVVLTMTNMDPVDTATYYCARIPGFLRYRNRYYYYGMDVWGQGTTVTVSS
VL: ELVLTQPPSVSAAPGQKVTISCSGSSSNIGNNYVSWYQQLPGTAPKLLIYDNNKRPSGIPDRFSGSKSGTSATLGITGLQTGDEADYYCGTWDSSLSAGVFGGGTELTVL
IC50 (ng/ml), PRNT [1]: 10.6 ng/mL
IC50 (ng/ml), PRNT [2]: 10.4 ng/mL
IC50 (ng/ml), PRNT [3]: 5.77 ng/mL
IC50 (ng/ml), PRNT [4]: 9.62 ng/mL
IC50 (ng/ml), PRNT [5]: 9.31 ng/mL
IC50 (ng/ml), PRNT [6]: 4.22 ng/mL
IC50, PRNT [7]: 5.73 ng/mL
IC50 (ng/ml), PRNT [8]: 3.37 ng/mL
